The record followed here is the nanobody polyreactivity screen of Harvey et al. (2022).

A short description of the series: yeast display, Sf9 membrane polyspecificity reagent, FACS + sequencing; frameworks hold sequencing errors. In short, it runs like this: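 A nanobody's polyreactivity label depends on the gate it was sorted from. Yeast display cells were stained with 10% biotinylated, detergent-solubilized Sf9 membrane reagent for 1 hour at 4 °C, enriched on streptavidin microbeads and sorted by FACS. The low and high (top ~1%) gates were set on anti-HA fluorescence for expression and streptavidin fluorescence for reagent binding.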
As for “QVQLVESGGGLVQAGGSLRLSCAASGSTFINYAKGWYRHAPGKERELVAAYADSVKGRFSISRDNAKNTVYLQMNSLKPEDTAVYYCAARGTIYVLGVPARPVPDGDYWGQGTQVTVSS”, the “polyreactivity (PSR sort gate)” value is given as “low polyreactivity”.
Under “QVQLVESGGGLVQAGGSLRLSCAASGSTFINYAMGWYRQAPGKERELVATISSNGGSTYYADSVKGRFTISRDNAKNTVYLQMNRLKPEDTAVYYCAADGKQYGFYYWGQGTQVTVSS” stands “low polyreactivity”; under “QVQLVESGGGLVQAGGSLRLSCAASGSTFIRNAMGWYRQAPGKERELVAAISGSGVSTRYADSVKGRFTISRDNAKNTVYLQMNSLKPEDTAVYYCAKRKQYPYTMGYWGQGTQVTVSS”, “high polyreactivity”.
Under “QVQLVESGGGLVQAGGSLRLSCAASGSTFISYAMGWSRQAPGKERELVAAISSSTGRTYYADSVKGRVTISRDNAKNTVYLQMNSLKPEDTAVYYCNAVHRYERDYWGQGTQVTVSS” stands “high polyreactivity”; under “QVQLVESGGGLVQAGGSLRLSCAASGSTFIVYAMGWYRQAPGKERELVAAITASGGSTYADSVKGRFTISRDNAKNTVYLQMNSLKPEDTAVYYCAARRWSRKYRKYDYWGQGTQVTVSS”, “high polyreactivity”; under “QVQLVESGGGLVQAGGSLRLSCAASGSTFIYNAMGWYRQAPGKERELVAGITGSGGSTYYADSVKGRFTISRDNAKNNVYLQMNSLKPEDTAVYYCAADRHIHYTDARMDYWGQGTQVTVSS”, “low polyreactivity”.
Under “QVQLVESGGGLVQAGGSLRLSCAASGSTFKAYAMGWYRQAPGKERELVAAITNSDGDTYYADSVKGRFTISRDNAKNTVYLQMNSLKPEDTAVYYCIADTGKWGGNGWYEFDYWGQGTQVTVSS” stands “low polyreactivity”; under “QVQLVESGGGLVQAGGSLRLSCAASGSTFKFNAMGWYRQAPGKETELVATITSRGSRTYYADSVKGRFTISRDNAKNTVYLQMNSLKPEDTAVYYCAARVFRPYGSLYDYWGQGTQVTVSS”, “high polyreactivity”.
In the case of “QVQLVESGGGLVQAGGSLRLSCAASGSTFKFYAMGWYRQAPGKERELVASITSSSGPTYYADSVKGRFTISRDNAKNTVYLQLNSLKPEDTAVDYCAKRPIRYYHLLRGNYWGQGTQVTVSS”, the “polyreactivity (PSR sort gate)” value was “low polyreactivity”.
Under “QVQLVESGGGLVQAGGSLRLSCAASGSTFKFYTMGWYRQAPGKERELVATIDWSGGSTYYADSVKGRFTISRDNAKNTVYLQMNSLKPEDTSVYYCAAYSRSRTTRLGKYYYWGQGTQVTVSS” stands “high polyreactivity”; under “QVQLVESGGGLVQAGGSLRLSCAASGSTFKGNAMGWYRQAPGKERELVAAITFSGGSTYYADSVKGRFTISRDNAKNTVYLQMNSLKPEDTAVYYCAKGEWVYWRPWYEYWGQGTQVTVSS”, “low polyreactivity”; under “QVQLVESGGGLVQAGGSLRLSCAASGSTFKGYSMGWYRQAPGKERALVAAISRSGTRTYYADSVKGRFTISRDNAKNTVYLHMTILKPEVTAVYYCNKVTGFIAHDNEKGRDYWGQGTQVTVSS”, “low polyreactivity”.
Under “QVQLVESGGGLVQAGGSLRLSCAASGSTFKGYTMGWYRQAPGKEREFVATITFSDGSTYYADCVKGRFTISRDNAKNTVYLQMNSLKPAVTAVYYCNVDSPIGYDYWGQGTQVTVSS” stands “low polyreactivity”.
As for “QVQLVESGGGLVQAGGSLRLSCAASGSTFKINAMGWYRQAPGKERELVAAIRSRGGGTYYADSVKGRFTISRDNAKNTVYLQMNSLKPEDTAVYYCAATRRYHFDYWGQGTQVTVSS”, the “polyreactivity (PSR sort gate)” value is given as “high polyreactivity”.
Turning to “QVQLVESGGGLVQAGGSLRLSCAASGSTFKIYAMGWYRQAPGKERELVARITGRGGSTYYADSVKGRFTISRDNAKNTVYLQMNSLKPEDTAVYYCAARVYTFYYDLHKRYYWGQGTQVNVSS”, the “polyreactivity (PSR sort gate)” value is on record as “high polyreactivity”.
As to “QVQLVESGGGLVQAGGSLRLSCAASGSTFKKYAMGWYRQAPGKERELVAAITWTGGSTYYADSVKGRFTISRDNAKNTVYLQMNSLKPEDTAVYYCAAYKTYAVKYYWGQGTQVTVSS”, the “polyreactivity (PSR sort gate)” value was “high polyreactivity”.
Under “QVQLVESGGGLVQAGGSLRLSCAASGSTFKNNAMGWYRQEPGKEREFVASISKRGGSTYYADSVKGRFTISRDNAKNTVYLQMNSLKPEDTAVDYCAKTYWSYGWSHGDYGEFDYWGQGTQVTVSS” stands “high polyreactivity”; under “QVQLVESGGGLVQAGGSLRLSCAASGSTFKPNAMGWYRQAPGKERELVAGISGRGGSTNYADSVKGRFTISRDNAKNTVYLQMNRLKPEDTAVYYCAKDAYPLWLTRYNYWGQGTQVTVSS”, “low polyreactivity”.
For “QVQLVESGGGLVQAGGSLRLSCAASGSTFKPYAMGWYRQAPGKERELVAAITWSSGSTYYADSVKGRFTISRDNAKNTVYLQMNSLKPEDTAVYYCARDRYSVFEYDYWGQGTQVTVSS”, the “polyreactivity (PSR sort gate)” value was “low polyreactivity”.
As for “QVQLVESGGGLVQAGGSLRLSCAASGSTFKPYPMGWYRQAPGKERELVADITGGGSTNYADSVKGRFTNSRDNAKNTVYLEMNSLKPEDTGVYYCNATYLLKYRYYDSTRYDYWGQGTQVTVSS”, the “polyreactivity (PSR sort gate)” value was “low polyreactivity”.
“QVQLVESGGGLVQAGGSLRLSCAASGSTFKQYAMGWYRQAPGKERELVADINVRDGGTYYADSVKGRFTISRDNAKNTVYLQMNSLKPEDTAVYYCAKDYYACYWEMDYWGQGTQVTVSS”: the “polyreactivity (PSR sort gate)” value is reported as “low polyreactivity”.
Consider “QVQLVESGGGLVQAGGSLRLSCAASGSTFKQYAMGWYSQAPGKERELVAAISLSGSRTYYADSVKVRFTISRDNAKNTVYLQMKSLIPVDTAVYYCAAELRSSAGWLYDYWGQGTQVTVSS”, for which the “polyreactivity (PSR sort gate)” value is “high polyreactivity”.
Under “QVQLVESGGGLVQAGGSLRLSCAASGSTFKRNAMGWYRQAPGKERELVAAISWRGTSTYYADSVKGRFTISRDNAKNTVYLQMNSLKPEDTAVYYCAADRGSSVRYGYWGQGTQVTVSS” stands “high polyreactivity”; under “QVQLVESGGGLVQAGGSLRLSCAASGSTFKRNVMGWYRQAPGKERELVAAISRSTTSTYYADSVKGRFTISRDNAKNTVYLQMNSLKPEDTAVYYCATPHRYRVDYWGQGTQVTVSS”, “high polyreactivity”.
Under “QVQLVESGGGLVQAGGSLRLSCAASGSTFKRYAMGWYRQAPGKEMELVAAISTRGSTYYADSVKGRFTISRDNAKNTVYLQMNRLKPEETAVYYCNADVGAWAWYTRYDYWGQGTQVTVSS” stands “low polyreactivity”.
Under “QVQLVESGGGLVQAGGSLRLSCAASGSTFKRYAMGWYRQAPGKERELVADISRGVRTYYADSVKGRFTISRDNAKNTVYLQMNSLKPEDTAVYYCATKYHRNTYEYEYWGQGTQVTVSS” stands “high polyreactivity”.
Turning to “QVQLVESGGGLVQAGGSLRLSCAASGSTFKRYAMGWYRQAPGKERELVASISSGGSTNYADSVKGRFTISRDNAKNTVYLQMNSLKPEDTAVYYCAVSYRSFRYYWERYYSWGQGTQVTVSS”, the “polyreactivity (PSR sort gate)” value is given as “high polyreactivity”.
Under “QVQLVESGGGLVQAGGSLRLSCAASGSTFKRYDMGGYRQAPGKECEFVAGISSRGSRTYYADSVTGRFTISRDNAKNSVYFKMNILKPEDSAVYYCAVSGNHVSPPYGFWGQGTQVNVSS” stands “high polyreactivity”; under “QVQLVESGGGLVQAGGSLRLSCAASGSTFKSYAMGWYRQAPGKERELVAAINWSGGSTYYADSVKGRFTISRDNAKNTVYLQMTSLKPEDTAVYYCNALYAVRSYDSWGQGTQVTVSS”, “high polyreactivity”.
Under “QVQLVESGGGLVQAGGSLRLSCAASGSTFKSYTMGWYRQAPGKERELVAAITSSGRTNYADSVKGRFTISRDNAKNTVYLQMNSLKPEDTAVYYCAARWYYYPLLYDYWGQGTQVTVSS” stands “low polyreactivity”; under “QVQLVESGGGLVQAGGSLRLSCAASGSTFKTYAMGWYRQAPGKEREFVAAINWRGTSTYYADSVKGRFTISRDNAKNTVYLQMNSLKPEDTAVYYCAAQRYGYGYQWYDHWGQGTQVTVSS”, “high polyreactivity”; under “QVQLVESGGGLVQAGGSLRLSCAASGSTFKTYSMGWYRQAPGKERELVAAISGNGGSTYYADSVKGRFTISRDNAKNTVYLQMNILIPEDTAVYYCAAKRRRHFSRGYEYWGQGSQVTVSS”, “high polyreactivity”.
Under “QVQLVESGGGLVQAGGSLRLSCAASGSTFKVYAMGWYRQAPGKEMELDAAISRSGGRTYYADSVKGRFTISRDNAKNTVYLQMNSLKPEDTAVYYCNRDYTYSQGHYSGSYDYWGQGTQVTVSS” stands “high polyreactivity”; under “QVQLVESGGGLVQAGGSLRLSCAASGSTFKVYAMGWYRQAPGKERELVAVISGGGRTNYADSVKGRFTISRDNAKNTVYLQMNSLKPEDTAVYYCAALGPYGSARRKYGYWGQGTQVTVSS”, “high polyreactivity”.
Consider “QVQLVESGGGLVQAGGSLRLSCAASGSTFKVYAMGWYRQAPGKESELVATISKSGSTYADSVKGRFTISRDNAKNTVYLQMNSLKPEDTAVYYCARVKYSGVVYKYDYWGQGTQVTVSS”, for which the “polyreactivity (PSR sort gate)” value is “high polyreactivity”.
“QVQLVESGGGLVQAGGSLRLSCAASGSTFKWYAMGLYRQAPGKERELVAAIDSRGGSTYYADSVKGRFTISRDNAKNTVFLQMISLKPEDTAVYYCNIYPHYSFQSHNYWGQGTQVTVSS”: the “polyreactivity (PSR sort gate)” value was “high polyreactivity”.
Under “QVQLVESGGGLVQAGGSLRLSCAASGSTFKYNAMGWYRQAPGKERELVARISWSGGSTYYADSVKGRFTISRDNAKNSVYLQMNSLKPEDTAVYYCAARSWWRGYSFYYWGQGTQVTVSS” stands “high polyreactivity”; under “QVQLVESGGGLVQAGGSLRLSCAASGSTFKYYAMGWYRQAPGKERELVARISIRGGSTYYADSVKGRFTISRDNAKNTVYLQMNSLKPEDTAVYYCAAVGYFGGYRYYYWGQGTQVTVSS”, “high polyreactivity”; under “QVQLVESGGGLVQAGGSLRLSCAASGSTFKYYAMGWYRQAPGKERELVATITWSGTSTNYADSVKGRFTISRDNAKHTVYLQMHSLKPEDTAVYYCAARSKRRNYDYWGQGTQVTVSS”, “high polyreactivity”.
Under “QVQLVESGGGLVQAGGSLRLSCAASGSTFKYYAMVWYRQAPGKERELVAAISRSGGRTYYADSVKGRFTISRDNAKNTVYLQMNSLKPEDTAVSLCNAVVARVNVRGTPAFDYWGQGTQVTVSS” stands “high polyreactivity”.
Under “QVQLVESGGGLVQAGGSLRLSCAASGSTFKYYGMGWYRQAPGKERELVAAITSGGSTYDADSVKGRFTISRDNAKTTVYLQRNSLKPEDTAVYYCNTQYYLYYPADYDYWGQGTQVTVSS” stands “low polyreactivity”.
